In publication PMC3035719:
pKd: −log10 of the molar value.

Tests used:
MBP-DGKδSAM-H38A/V52E = experiment: SPR
MBP-DGKδSAM-V52E = MBP-DGKδSAM-V52E (UniProt Q16760); experiment: SPR

## MBP-DGKδSAM-E35G (domain or fragment)
MBP-DGKδSAM-H38A/V52E
  pKd: 4.64
MBP-DGKδSAM-V52E
  pKd: 4.91
